{
  "source": "patent US20220389118A1",
  "about": "(Chugai, published 2022)",
  "binders": {"B1": {"name": "IL6R-BP348/IL6R-L (antibody, human IgG1, kappa)", "heavy": "QVQLQESGPGLVKPSETLSLTCAVSGHSISHDHAWSWVRQPPGEGLEWIGFISYSGITNYNPSLQGRVTISRDNSKNTLYLQMNSLRAEDTAVYYCARSLARTTAMDYWGEGTLVTVSSASTKGPSVFPLAPSSKSTSGGTAALGCLVKDYFPEPVTVSWNSGALTSGVHTFPAVLQSSGLYSLSSVVTVPSSSLGTQTYICNVNHKPSNTKVDKKVEPKSCDKTHTCPPCPAPDLLGDDSVFLFPPKPKDTLMISRTPEVTCVVVDVAEEDGEVKFNWYVDGVEVHNAKTKPREEQYNSTYRVVSVLTVLHQDWLNGKEYKCKVSNKALPAPIEKTISKAKGQPREPQVYTLPPSRDELTKNQVSLTCLVKGFYPSDIAVEWESNGQPENNYKTTPPVLDSDGSFFLYSKLTVDKSRWQQGNVFSCSVMHEALHNHYTQESLSLSP", "light": "not shown", "notes": "S267A introduced into IL6R-BP267; copies: 2 + 2"}, "B2": {"name": "IL6R-BP237/IL6R-L (antibody, human IgG1, kappa)", "heavy": "B1 heavy with L236Y, A269Q, E270D, Y298D, K328A, A332K", "light": "not shown", "notes": "copies: 2 + 2"}, "B3": {"name": "IL6R-BP239/IL6R-L (antibody, human IgG1, kappa)", "heavy": "B1 heavy with L236Y, A269Q, E270D, Y298D, K328A, A332R", "light": "not shown", "notes": "copies: 2 + 2"}, "B4": {"name": "IL6R-BP119/IL6R-L (antibody, human IgG1, kappa)", "heavy": "B1 heavy with D235E, D239G, A269S, E270H, G273P, K328M", "light": "not shown", "notes": "IgG1 type"}, "B5": {"name": "IL6R-BP231/IL6R-L (antibody, human IgG1, kappa)", "heavy": "B1 heavy with D235E, A269S, E270D, Y298D, A332R", "light": "not shown", "notes": "copies: 2 + 2"}, "B6": {"name": "IL6R-PD079/IL6R-L (antibody, human IgG1, kappa)", "heavy": "B1 heavy with D235E, D239A, M254Y, A269S, E270H, G273P, N436Y, E441K", "light": "not shown", "notes": "also called P238D/G237A; G237A/P238D; copies: 2 + 2"}, "B7": {"name": "IL6R-PD042/IL6R-L (antibody, human IgG1, kappa)", "heavy": "B1 heavy with D235E, L236W, D239G, M254Y, A269S, E270H, G273P, N436Y, E441K", "light": "not shown", "notes": "also called P238D/L234W; L234W/P238D; copies: 2 + 2"}, "B8": {"name": "IL6R-2B172/IL6R-L (antibody, human IgG1, kappa)", "heavy": "B1 heavy with D235E, D239G, A269S, E270H, G273P, V325M", "light": "not shown", "notes": "IgG1 type"}, "B9": {"name": "IL6R-BP084/IL6R-L (antibody, human IgG1, kappa)", "heavy": "B1 heavy with D235E, D239G, A269S, E270H, G273P, V325M, A332K", "light": "not shown", "notes": "EU numbering; alterations on IL6R-B3; copies: 2 + 2"}, "B10": {"name": "IL6R-BP475/IL6R-L (antibody, human IgG1, kappa)", "heavy": "B1 heavy with A269S, E270D, Y298D, A329G, A332S", "light": "not shown", "notes": "A327G and A330S introduced into IL6R-BP230; copies: 2 + 2"}, "B11": {"name": "IL6R-BP514/IL6R-L (antibody, human IgG1, kappa)", "heavy": "B1 heavy with A269S, E274F", "light": "not shown", "notes": "E272F introduced into IL6R-BP267; copies: 2 + 2"}, "B12": {"name": "IL6R-BP228/IL6R-L (antibody, human IgG1, kappa)", "heavy": "B1 heavy with D235E, L236Y, A269Q, E270D, K328D, A332R", "light": "not shown", "notes": "copies: 2 + 2"}, "B13": {"name": "IL6R-BP367/IL6R-L (antibody, human IgG1, kappa)", "heavy": "B1 heavy with A269S, E271D", "light": "not shown", "notes": "E269D introduced into IL6R-BP267; copies: 2 + 2"}, "B14": {"name": "IL6R-BP471/IL6R-L (antibody, human IgG1, kappa)", "heavy": "B1 heavy with A269S, E270D, Y298D, A332R, P333S", "light": "not shown", "notes": "P331S introduced into IL6R-BP230; copies: 2 + 2"}, "B15": {"name": "IL6R-BP085/IL6R-L (antibody, human IgG1, kappa)", "heavy": "B1 heavy with D235E, A269S, E270H, G273P, A332K", "light": "not shown", "notes": "as for B9"}},
  "key": {"[1]": {"target": "T1, human FcγRIIa type R (R131) extracellular domain with C-terminal His tag (human, UniProt P12318 34-217)", "T1 construct": "extracellular domain; also called FcγRIIaR; not shown: His tag at the C terminus", "T1 sequence (looked up)": "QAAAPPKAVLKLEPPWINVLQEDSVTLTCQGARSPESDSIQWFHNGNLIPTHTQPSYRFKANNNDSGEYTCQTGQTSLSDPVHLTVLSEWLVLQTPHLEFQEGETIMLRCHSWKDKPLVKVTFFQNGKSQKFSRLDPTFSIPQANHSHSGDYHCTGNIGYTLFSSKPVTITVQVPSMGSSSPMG", "assay": "SPR (Biacore), antibody captured, FcγR analyte"}, "[2]": {"target": "T2, human FcγRIIb extracellular domain with C-terminal His tag (human, UniProt P31994 43-217)", "T2 construct": "extracellular domain; not shown: His tag at the C terminus", "T2 sequence (looked up)": "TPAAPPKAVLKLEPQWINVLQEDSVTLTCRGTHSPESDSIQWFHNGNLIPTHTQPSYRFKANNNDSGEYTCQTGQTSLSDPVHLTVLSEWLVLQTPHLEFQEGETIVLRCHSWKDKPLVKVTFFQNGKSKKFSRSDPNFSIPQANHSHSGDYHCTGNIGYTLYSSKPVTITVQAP", "assay": "SPR (Biacore), antibody captured, FcγR analyte"}, "[3]": {"target": "T3, human FcγRIIb extracellular domain with C-terminal His tag (human, UniProt P31994 43-217)", "T3 construct": "extracellular domain; also called FcgRIIb", "T3 sequence (looked up)": "T2 sequence (looked up)", "assay": "SPR (Biacore), antibody captured, FcγR as analyte"}, "[4]": {"target": "T4, human FcγRIIa type R extracellular domain with C-terminal His tag (human, UniProt P12318 34-217)", "T4 construct": "extracellular domain; also called FcγRIIaR; FcgRIIaR", "T4 sequence (looked up)": "T1 sequence (looked up)", "assay": "SPR (Biacore), antibody captured, FcγR as analyte"}, "[5]": {"target": "T5, human FcγRIa extracellular domain with C-terminal His tag (human, UniProt P12314 16-292)", "T5 construct": "also called FcgRIa", "assay": "SPR (Biacore), antibody captured, FcγR as analyte", "T5 sequence (P12314 16-292)": "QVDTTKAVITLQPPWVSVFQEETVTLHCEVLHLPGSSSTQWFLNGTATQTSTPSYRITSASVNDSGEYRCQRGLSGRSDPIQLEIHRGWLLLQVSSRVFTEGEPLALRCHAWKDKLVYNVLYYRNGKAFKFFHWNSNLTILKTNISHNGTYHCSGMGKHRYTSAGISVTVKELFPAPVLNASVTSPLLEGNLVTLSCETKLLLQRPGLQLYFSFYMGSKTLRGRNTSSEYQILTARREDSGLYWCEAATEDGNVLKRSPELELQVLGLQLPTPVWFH"}, "[6]": {"target": "T6, human FcγRIIIa type V (allotype V158) extracellular domain with C-terminal His tag (human, UniProt P08637 17-208)", "T6 construct": "extracellular domain; also called FcγRIIIaV; FcγRIIIa V type; not shown: His tag at the C terminus", "T6 sequence (P08637 17-208 F176V)": "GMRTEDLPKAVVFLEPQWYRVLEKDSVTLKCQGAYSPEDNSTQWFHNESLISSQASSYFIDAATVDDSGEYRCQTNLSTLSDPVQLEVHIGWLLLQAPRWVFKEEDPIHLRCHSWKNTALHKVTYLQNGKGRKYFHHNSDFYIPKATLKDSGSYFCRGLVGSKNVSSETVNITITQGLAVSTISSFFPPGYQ", "assay": "SPR (Biacore), antibody captured, FcγR analyte"}, "[7]": {"target": "T7, human FcγRIIb extracellular domain with C-terminal His tag (human, UniProt P31994 43-217)", "T7 construct": "extracellular domain; for crystals expressed with kifunensine and trimmed with Endo F1; also called FcγRIIb extracellular region", "T7 sequence (looked up)": "T2 sequence (looked up)", "assay": "SPR, Ref. Ex. 25"}, "[8]": {"target": "T8, human FcγRIIa type R extracellular domain with C-terminal His tag (human, UniProt P12318 34-217)", "T8 construct": "extracellular domain; also called FcγRIIaR; FcγRIIa R", "T8 sequence (looked up)": "T1 sequence (looked up)", "assay": "SPR, Ref. Ex. 25"}, "[9]": {"target": "T9, human FcγRIIIa type V extracellular domain with C-terminal His tag (human, UniProt P08637 17-208)", "T9 construct": "extracellular domain; also called FcγRIIIaV; FcγRIIIa V type", "assay": "SPR, Ref. Ex. 25", "T9 sequence (P08637 17-208 F176V)": "as above"}, "[10]": {"target": "T10, human FcγRIa extracellular domain with C-terminal His tag (human, UniProt P12314 16-292)", "T10 construct": "extracellular domain; also called FcgRIa", "assay": "SPR (Biacore)", "T10 sequence (P12314 16-292)": "as the sequence (P12314 16-292) above"}, "[11]": {"target": "T11, human FcγRIIb extracellular domain with C-terminal His tag (human, UniProt P31994 43-217)", "T11 construct": "extracellular domain; also called FcgRIIb", "T11 sequence (looked up)": "T2 sequence (looked up)", "assay": "SPR (Biacore)"}, "[12]": {"target": "T1, human FcγRIIa type R (R131) …", "assay": "SPR (Biacore), antibody captured, FcγR analyte", "remark": "listed apart in the source"}, "[13]": {"target": "T12, human FcγRIIb extracellular domain with C-terminal His tag (human, UniProt P31994 43-217)", "T12 construct": "extracellular domain; not shown: His tag at the C terminus", "T12 sequence (looked up)": "T2 sequence (looked up)", "assay": "SPR (Biacore), antibody captured, FcγR analyte", "remark": "listed apart in the source"}, "[14]": {"target": "T13, human FcγRIIIa type V extracellular domain with C-terminal His tag (human, UniProt P08637 17-208)", "T13 construct": "extracellular domain; also called FcγRIIIaV; FcgRIIIaV", "assay": "SPR (Biacore)", "T13 sequence (P08637 17-208 F176V)": "as the sequence (P08637 17-208 F176V) above"}, "[15]": {"target": "T14, human FcγRIIa type R extracellular domain with C-terminal His tag (human, UniProt P12318 34-217)", "T14 construct": "extracellular domain; also called FcγRIIaR; FcgRIIaR", "T14 sequence (looked up)": "T1 sequence (looked up)", "assay": "SPR (Biacore)"}},
  "note": "Where a chain is given by its changes, count along the chain named. Names may count otherwise. Read-outs that look alike come from different tables or passages of the source.",
  "data": [
    {"binder": "B1", "values": [
      {"measurement": "Kd", "setting": "[1]", "result": 700, "unit": "nM"}
    ]},
    {"binder": "B2", "values": [
      {"measurement": "Kd", "setting": "[2]", "result": 100, "unit": "nM"}
    ]},
    {"binder": "B3", "values": [
      {"measurement": "Kd", "setting": "[2]", "result": 60, "unit": "nM"}
    ]},
    {"binder": "B4", "values": [
      {"measurement": "KD(IIb) of parent polypeptide/KD(IIb) of altered polypeptide", "setting": "[3]", "result": 2.7, "unit": "fold vs IL6R-B3/IL6R-L"},
      {"measurement": "Kd", "setting": "[4]", "result": 9900, "unit": "nM"},
      {"measurement": "Kd", "setting": "[5]", "result": 7, "unit": "nM"}
    ]},
    {"binder": "B5", "values": [
      {"measurement": "Kd", "setting": "[6]", "result": 40000, "unit": "nM"}
    ]},
    {"binder": "B6", "values": [
      {"measurement": "Kd", "setting": "[7]", "result": 3000, "unit": "nM"},
      {"measurement": "Kd", "setting": "[8]", "result": 32000, "unit": "nM"},
      {"measurement": "Kd", "setting": "[9]", "result": 37000, "unit": "nM"}
    ]},
    {"binder": "B7", "values": [
      {"measurement": "Kd", "setting": "[7]", "result": 2000, "unit": "nM"},
      {"measurement": "Kd", "setting": "[8]", "result": 16000, "unit": "nM"},
      {"measurement": "Kd", "setting": "[9]", "result": 37000, "unit": "nM"}
    ]},
    {"binder": "B8", "values": [
      {"measurement": "KD(IIb) of parent polypeptide/KD(IIb) of altered polypeptide", "setting": "[3]", "result": 4, "unit": "fold vs IL6R-B3/IL6R-L"},
      {"measurement": "Kd", "setting": "[4]", "result": 6100, "unit": "nM"},
      {"measurement": "Kd", "setting": "[5]", "result": 3, "unit": "nM"}
    ]},
    {"binder": "B9", "values": [
      {"measurement": "Kd", "setting": "[10]", "result": 7, "unit": "nM"},
      {"measurement": "Kd", "setting": "[11]", "result": 500, "unit": "nM"}
    ]},
    {"binder": "B10", "values": [
      {"measurement": "Kd", "setting": "[12]", "result": 1000, "unit": "nM"}
    ]},
    {"binder": "B11", "values": [
      {"measurement": "Kd", "setting": "[1]", "result": 3000, "unit": "nM"}
    ]},
    {"binder": "B12", "values": [
      {"measurement": "Kd", "setting": "[2]", "result": 40, "unit": "nM"}
    ]},
    {"binder": "B13", "values": [
      {"measurement": "Kd", "setting": "[13]", "result": 100, "unit": "nM"}
    ]},
    {"binder": "B14", "values": [
      {"measurement": "Kd", "setting": "[12]", "result": 800, "unit": "nM"}
    ]},
    {"binder": "B15", "values": [
      {"measurement": "Kd", "setting": "[14]", "result": 68000, "unit": "nM"},
      {"measurement": "Kd", "setting": "[15]", "result": 4200, "unit": "nM"}
    ]}
  ]
}
